The source of these data is the RNAGym collection of RNA variant scans (doi:10.7554/elife.80360).

B1: HDV Ribozyme (parent)
chain: GGCCGGCAUGGUCCCAGCCUCCUCGCUGGCGCCGGCUGGGCAACAUUCCGAGGGGACCGUCCCCUCGGUAAUGGCGAAUGGGACCCA

Variants of B1 are the subject of this data set. Put plainly: self-cleavage, relative activity (ratio to wild type); higher = more cleavage; co-transcriptional.
For the variant G2C U20C, the self-cleavage turned out to be 0.0536.

In the case of C3A C18A, the self-cleavage is 0.0282.

For C3A C18U, the self-cleavage is 0.00889.

For the variant G2U G55U, the self-cleavage was 0.0654.

Consider C3A C84U, for which the self-cleavage stood at 0.157.

For G2U U72C, the self-cleavage stood at 0.0191.

G2C C49G: the self-cleavage is 0.145.

For the variant G2C G80A, the self-cleavage was found to be 0.0573.

As to G2A U46C, the self-cleavage worked out at 0.109.

Turning to C3A G53A, the self-cleavage was found to be 0.519.

Turning to G2U C57U, the self-cleavage was 0.0365.

Take G2U C26U: the self-cleavage amounted to 0.0852.

For the variant G2A U9A, the self-cleavage was 0.0773.

Turning to G1U A87U, the self-cleavage was 0.507.

As to G1U C32G, the self-cleavage was found to be 0.305.

For the variant G1U C32U, the self-cleavage is 0.532.

With G1U G40C, the self-cleavage turned out to be 0.491.

Consider G2A C21G, for which the self-cleavage came to 0.0528.

On to G1U C48G, for which the self-cleavage was 0.243.

Take C3A C63A: the self-cleavage was found to be 0.492.

As to C3A G50A, the self-cleavage was found to be 0.545.

As for C3A G50U, the self-cleavage was determined as 0.754.

G2A C44U: the self-cleavage turned out to be 0.0554.

For the variant G1U A78G, the self-cleavage was 0.346.

Take G1U A51G: the self-cleavage was 0.514.

With G1U A51C, the self-cleavage was 0.231.

On to G1U U47A, for which the self-cleavage is 0.295.

Consider G2A U65C, for which the self-cleavage was 0.117.

Regarding G2A U65G, the self-cleavage amounted to 0.223.

For G2U G10C, the self-cleavage amounted to 0.0621.

For G2U G10U, the self-cleavage was determined as 0.038.

Consider G2U G10A, for which the self-cleavage was 0.

G2U C33G: the self-cleavage stood at 0.00889.

Consider G2U C33A, for which the self-cleavage turned out to be 0.043.

For C3A C30G, the self-cleavage came to 0.0166.

Regarding G2U G38C, the self-cleavage worked out at 0.0181.

On to G2C A8G, for which the self-cleavage amounted to 0.0554.

Regarding G2A C62U, the self-cleavage was determined as 0.0886.

On to G2U U23A, for which the self-cleavage is 0.0391.

On to G2U U23G, for which the self-cleavage amounted to 0.0287.

For G2A C24G, the self-cleavage worked out at 0.0378.

G1U A71U: the self-cleavage was found to be 0.424.

In the case of G1U A71G, the self-cleavage came out at 0.429.

For G2A G53C, the self-cleavage is 0.348.

As for G2A G53A, the self-cleavage worked out at 0.168.

With G2C C7A, the self-cleavage was found to be 0.0268.

Turning to G2C C7G, the self-cleavage was 0.0692.

Take G1U C41U: the self-cleavage was 0.228.

Regarding G1U C41G, the self-cleavage was determined as 0.249.

Turning to C3A C26U, the self-cleavage stood at 0.853.

For the variant G2C G25U, the self-cleavage was determined as 0.0702.

As for G1U G73A, the self-cleavage is 0.237.

With G2A C66U, the self-cleavage stood at 0.192.

On to C3A A42U, for which the self-cleavage stood at 0.0773.

In the case of C3A G28U, the self-cleavage is 0.0536.

Take C3A G28A: the self-cleavage was found to be 0.0138.

In the case of G1U G54C, the self-cleavage is 0.361.

As to G1U G54A, the self-cleavage turned out to be 0.277.

G1U C13G: the self-cleavage is 0.369.

G1U G34C: the self-cleavage is 0.155.

Take G1U G6A: the self-cleavage stood at 0.41.

On to C3A G6C, for which the self-cleavage came to 0.0282.

Consider C3A G6A, for which the self-cleavage turned out to be 0.0931.

As to G2A C33G, the self-cleavage came out at 0.0378.

Turning to G2A U72A, the self-cleavage came to 0.053.

For the variant G2U C41A, the self-cleavage is 0.0589.

On to G2A G73U, for which the self-cleavage was 0.0443.

G2A G10A: the self-cleavage worked out at 0.0256.

Take G2A C86G: the self-cleavage came out at 0.0755.

On to G1U U60C, for which the self-cleavage was 0.0811.

In the case of G2A C58A, the self-cleavage was determined as 0.234.

Consider G2A C58U, for which the self-cleavage turned out to be 0.113.

With G2C C66A, the self-cleavage worked out at 0.0913.

Take G2U C44U: the self-cleavage worked out at 0.

For G2U C44A, the self-cleavage worked out at 0.0583.

With G2C C19U, the self-cleavage was 0.0665.

For the variant G2U C86G, the self-cleavage is 0.117.

With G2C G28A, the self-cleavage stood at 0.0475.

With G2C G28C, the self-cleavage was 0.0475.

For the variant C3A C64G, the self-cleavage is 0.32.

Consider C3A G55A, for which the self-cleavage amounted to 0.705.

Turning to G2U C7G, the self-cleavage came to 0.

On to C3A G68C, for which the self-cleavage is 0.363.

For G2C C57G, the self-cleavage amounted to 0.0228.

For G1U G11C, the self-cleavage amounted to 0.288.

On to G2A G50A, for which the self-cleavage came out at 0.0386.

Regarding G2U C24A, the self-cleavage worked out at 0.0554.

G2A U60C: the self-cleavage was determined as 0.354.

G2C C30U: the self-cleavage was determined as 0.117.

G2C C63G: the self-cleavage is 0.0314.

For the variant G2C C63U, the self-cleavage stood at 0.

As to G2A C41A, the self-cleavage was 0.168.

Consider C3A C75A, for which the self-cleavage was found to be 0.0784.

Take G2A G31C: the self-cleavage was found to be 0.0354.

As for G1C U60A, the self-cleavage stood at 0.237.

As for G2C U60A, the self-cleavage stood at 0.0779.

Consider G2C U60G, for which the self-cleavage is 0.0326.

In the case of G2U A51G, the self-cleavage was 0.0683.

For the variant C3A G40C, the self-cleavage came to 0.0923.

For the variant C3A G40U, the self-cleavage turned out to be 0.256.

On to G2U G17C, for which the self-cleavage worked out at 0.0228.

For G2U A56G, the self-cleavage was 0.0674.

Take G2A G34C: the self-cleavage amounted to 0.0489.

Regarding G1U U37G, the self-cleavage was found to be 0.31.

As to G1U U37A, the self-cleavage was found to be 0.584.

As for G2C C84U, the self-cleavage turned out to be 0.0181.

Take G1U G67C: the self-cleavage was 0.305.

As to G2C C26U, the self-cleavage is 0.124.

For G1U C84G, the self-cleavage amounted to 0.297.

Regarding G2A U27G, the self-cleavage was determined as 0.

For the variant G2A U27A, the self-cleavage is 0.0997.

With C3A C58A, the self-cleavage turned out to be 0.609.

Take C3A C58U: the self-cleavage was determined as 0.596.

For the variant C3A C41U, the self-cleavage came to 0.321.

For the variant C3A C41A, the self-cleavage came to 0.25.

On to G2A C84A, for which the self-cleavage came out at 0.0519.

Consider G2A C84U, for which the self-cleavage came out at 0.119.

With G2A C85G, the self-cleavage is 0.217.

Take G2A C85A: the self-cleavage came to 0.268.

For the variant G2U G40U, the self-cleavage was 0.0132.

Regarding G2A C7G, the self-cleavage stood at 0.017.

Regarding G2A C7U, the self-cleavage is 0.0852.

Consider G2A C30G, for which the self-cleavage came out at 0.0432.

G2A C30U: the self-cleavage is 0.0639.

Take G2A C30A: the self-cleavage amounted to 0.0152.

As for G1U U65C, the self-cleavage stood at 0.399.

C3A A51C: the self-cleavage came to 0.374.

Regarding G2A A43C, the self-cleavage stood at 0.0665.

For the variant G2C C13G, the self-cleavage was 0.0504.

For the variant G2C A77U, the self-cleavage worked out at 0.119.

As for C3A C33G, the self-cleavage was determined as 0.

In the case of G2A U20A, the self-cleavage stood at 0.0361.

Turning to G2A U20G, the self-cleavage amounted to 0.

C3A C13A: the self-cleavage came out at 0.0329.

On to G2C G76U, for which the self-cleavage was found to be 0.0455.

Consider G2C A16C, for which the self-cleavage came out at 0.0361.

Take C3A C57U: the self-cleavage came to 0.701.

With G1U C30A, the self-cleavage turned out to be 0.426.

As to G2A A8U, the self-cleavage came out at 0.0432.

As for G2A A8C, the self-cleavage came out at 0.106.

For the variant C3A A56C, the self-cleavage came to 0.495.

On to G1U C58G, for which the self-cleavage amounted to 0.318.

For G2U C75A, the self-cleavage came out at 0.

Take C3A A71G: the self-cleavage is 0.38.

Regarding C3A A71U, the self-cleavage turned out to be 0.385.

For the variant C3A A45U, the self-cleavage was 0.269.

G1U G68U: the self-cleavage was determined as 0.287.

Consider C3A G67A, for which the self-cleavage worked out at 0.462.

As to G2U C49A, the self-cleavage worked out at 0.118.

For the variant C3A G31A, the self-cleavage was determined as 0.0507.

As for C3A G31C, the self-cleavage was determined as 0.0166.

As for G2C G52C, the self-cleavage was 0.

Take G2C G52U: the self-cleavage was 0.032.

As for G1U G29A, the self-cleavage came to 0.336.

Consider G2A C63U, for which the self-cleavage stood at 0.162.

For the variant G2A C63G, the self-cleavage was found to be 0.0804.

Regarding C3A C36A, the self-cleavage was found to be 0.071.

Turning to G1U C86A, the self-cleavage amounted to 0.32.

Consider G2U A42G, for which the self-cleavage stood at 0.0767.

Regarding G2U G34C, the self-cleavage is 0.0484.

Take G2U G34A: the self-cleavage was 0.0671.

As for G2C U46A, the self-cleavage turned out to be 0.0911.

For G2C U46G, the self-cleavage was determined as 0.0959.

With G2C G11U, the self-cleavage was found to be 0.0519.

G2A C57U: the self-cleavage amounted to 0.203.

On to G1U C22G, for which the self-cleavage was 0.214.

For the variant G1U C22U, the self-cleavage was 0.356.
